Source: article PMC11784022, “An unusual activity of mycobacterial MutT1 Nudix hydrolase domain as a protein phosphatase regulates nucleoside diphosphate kinase function” (Journal of Bacteriology, 2024)

Molecular target: the molecule itself
Experiment: SDS-PAGE of samples not heated in sample buffer; MsmNDK-Pi (1 µg) in kinase buffer (50 mM Tris-HCl pH 8.0, 50 mM KCl, 10 mM MgCl2), 30°C, mixed with SDS-PAGE sample buffer without heating, 12% SDS-PAGE, Coomassie stain

B1: Mycobacterium smegmatis nucleoside diphosphate kinase (MsmNDK) (enzyme, Mycobacterium smegmatis mc2155, UniProt O85501 1-139, looked up)
chain: MTERTLVLIKPDGVKRQLVGEILSRIERKGLTLAALELKNVSDDLARQHYAEHADKPFFGSLLEFITSGPLVAAIVEGPRAVAAFRQIAGGTDPVEKAVPGTIRGDFALITQDNLVHGSDSPESAAREIALWFPGEATA
notes: Nucleoside diphosphate kinase of Mycobacterium smegmatis mc2155, locus MSMEG_4627; ORF amplified from genomic DNA and cloned into pProEx-Htb between NcoI and HindIII; also called MsmNDK-Pi; source: E. coli M15, purified (Ni-NTA, Superdex-75)
- binding result: binds
